Patent US6365350B1, “Method of DNA sequencing” (The Institute of Physical and Chemical Research, priority 1997, dated 2002)
Entries after “also recorded” stand apart in the source; their conditions may differ.

Experiments:
dye terminators = experiment: Sequencing reaction utilizing mutant T7 RNA polymerase F644Y/L665P/F667Y (Example 8); type: biochemical; conditions: PCR product template, n=4 dye terminators, FIG. 41
[1] = system: 3′-dATP, 3′-dGTP, 3′-dCTP, 3′-dUTP and derivatives thereof
Description: The T7 RNA polymerases introduced with mutations were purified, and their abilities of promoter sequence specific RNA synthesis and incorporation of ribonucleoside 5′-triphosphates including ATP, GTP, CTP, UTP and derivatives thereof, as well as 3′-DATP, 3′-dGTP, 3′-dCTP, 3′-dUTP and derivatives thereof were compared with those of wild type T7 RNA polymerase.
For two kinds of reaction mixture (with or without 3′-DATP, final concentration was 100 μM), the reaction was performed at 37° C. for 60 minutes. The whole reaction mixture was spotted on DE81 paper (Whatman), washed three times with phosphate buffer, and dried. The DE81 paper was placed into a scintillation vial, and radioactivity was measured using a scintillation counter (Beckman) for each reaction. Degree of inhibition of the [α-^32P]UTP incorporation was calculated by comparing the values obtained with and without 3′-dATP based on the measured radioactivity.

[2] = system: DNA containing T7 promoter; conditions: in vitro, compared with wild type T7 RNA polymerase
Description: Subsequent steps for purification of enzyme should be performed at a temperature lower than room temperature, preferably 0-5° C. unless otherwise indicated. The E. coli cells were washed with 10 times relative to the cell weight of a washing buffer (20 mM Tris-HCl, pH 8.1, 130 mM NaCl, 2 mM EDTANa2 at 25° C.), centrifuged again (5,000×g, 4° C., 10 minutes), suspended in 10 times in volume of a sonication buffer [50 mM Tris-HCl, pH 8.1, 100 mM NaCl, 0.1 mM EDTANa2, 5 mM dithiothreitol (DTT), 0.1 mM benzamidine, 30 μg/ml phenylmethylsulfonyl fluoride (PMSF), 10 μg/ml bacitracin], and sonicated by using Sonifier 450 (Branson) at 80W for more than 15 minutes to destroy the cells and reduce the viscosity of the cells. Then, the cell suspension is centrifuged at 12,000×g and 4° C. for ten minutes to remove the cell debris. 10% streptomycin sulfate was slowly added dropwise to the resulting supernatant to a final concentration of 2.0% with stirring, and stirring was further continued for 30 minutes. The supernatant was centrifuged at 12,000×g and 4° C. for ten minutes to remove precipitates, and slowly added with ammonium sulfate powder with stirring to form precipitates. In this case, precipitates were first collected by 30% saturation of ammonium sulfate (30% ammonium sulfate precipitation), and the resulting supernatant was further added with ammonium sulfate to 60% saturation with stirring to form precipitates again (30-60% ammonium sulfate precipitation). The supernatant was added again with ammonium sulfate powder to 90% ammonium sulfate saturation, and stirred at 4° C. for 1 hour, and the precipitates were collected by centrifugation. […] The.30′60% ammonium sulfate fraction was suspended in a small amount of column buffer (20 mM KPO4, pH 7.7, 100 mM NaCl, 1 mM DTT, 30 μg/ml PMSF), and desalted by dialysis against 500 ml of the same buffer for 16hours. The dialysate was applied on a heparin-Sepharose column of 5 ml volume (Pharmacia Biotech). Subsequently, the column was washed with the same buffer until any material absorbing ultraviolet ray at 280 nm disappeared, and eluted with a linear gradient of 0.1 M to 0.64 M NaCl in the same buffer of about 40 times volume of the column volume. The eluent was collected in test tubes as fractions of a suitable volume, and immediately subjected to SDS-acrylamide gel electrophoresis for protein analysis to identify fractions containing proteins around a molecular weight considered to be of the objective T7 RNA polymerase. […] The fractions containing the protein were collected, and desalted by dialysis against about 1 liter of the column buffer (20 mM KPO4, pH 7.7, 100 mM NaCl, 1 mM DTT, 30 μg/ml PMSF) for 16 hours. The fractions desalted by dialysis were applied to a Q-Sepharose column (Pharmacia Biotech) of 5 ml volume that preliminarily equilibrated with the same buffer, and the column was washed with the same buffer until any material absorbing ultraviolet ray at 280 nm disappeared, and eluted with a linear gradient of 0.1 M to 0.64 M NaCl in the same buffer of about 40 times volume of the column volume. The eluent was collected in test tubes as fractions of a suitable volume, and immediately subjected to SDS-acrylamide gel electrophoresis for protein analysis to identify fractions containing proteins around a molecular weight considered to be of the objective T7 RNA polymerase. […] The fractions containing the protein were collected, dialyzed against 500 ml of storage buffer (50% glycerol, 20 mM KPO4, pH 7.7, 100 mM NaCl, 1 mM DTT, 30 μg/ml PMSF) for 16 hours, and stored at −20° C. until use. In vitro RNA synthesis activity and activity of the contaminated ribonuclease of this sample were examined.

3′-dATP = experiment: Inhibition of [α-32P]UTP incorporation by 3′-dATP in transcription reaction (relative activity for 3′-dATP); type: biochemical

B1: F644Y/L665P/F667Y: mutant T7 RNA polymerase introduced with F644Y/L665P/F667Y mutations (protein)
chain: MNTINIAKNDFSDIELAAIPFNTLADHYGERLAREQLALEHESYEMGEARFRKMFERQLKAGEVADNAAAKPLITTLLPKMIARINDWFEEVKAKRGKRPTAFQFLQEIKPEAVAYITIKTTLACLTSADNTTVQAVASAIGRAIEDEARFGRIRDLEAKHFKKNVEEQLNKRVGHVYKKAFMQVVEADMLSKGLLGGEAWSSWHKEDSIHVGVRCIEMLIESTGMVSLHRQNAGVVGQDSETIELAPEYAEAIATRAGALAGISPMFQPCVVPPKPWTGITGGGYWANGRRPLALVRTHSKKALMRYEDVYMPEVYKAINIAQNTAWKINKKVLAVANVITKWKHCPVEDIPAIEREELPMKPEDIDMNPEALTAWKRAAAAVYRKDKARKSRRISLEFMLEQANKFANHKAIWFPYNMDWRGRVYAVSMFNPQGNDMTKGLLTLAKGKPIGKEGYYWLKIHGANCAGVDKVPFPERIKFIEENHENIMACAKSPLENTWWAEQDSPFCFLAFCFEYAGVQHHGLSYNCSLPLAFDGSCSGIQHFSAMLRDEVGGRAVNLLPSETVQDIYGIVAKKVNEILQADAINGTDNEVVTVTDENTGEISEKVKLGTKALAGQWLAYGVTRSVTKRSVMTLAYGSKEYGFRQQVLEDTIQPAIDSGKGPMYTQPNQAAGYMAKLIWESVSVTVVAAVEAMNWLKSAAKLLAAEVKDKKTGEILRKRCAVHWVTPDGFPVWQEYKKPIQTRLNLMFLGQFRLQPTINTNKDSEIDAHKQESGIAPNFVHSQDGSHLRKTVVWAHEKYGIESFALIHDSFGTIPADAANLFKAVRETMVDTYESCDVLADFYDQFADQLHESQLDKMPALPAKGNLNLRDILESDFAFA
- incorporation rate of dye terminators (electrogram) (dye terminators): improvement of incorporation rate of dye terminators
- bias of incorporation observed in the wild type [1]: markedly reduced
- ability for incorporating 3′-dATP, 3′-dGTP, 3′-dCTP, 3′-dUTP and derivatives thereof ([1]; compared with wild type T7 RNA polymerase): marked improvement; also recorded: the highest; also recorded: markedly improved ability
- RNA synthesis activity [2]: maintained sufficient RNA synthesis activity
- bias for the 3′-dATP incorporation (3′-dATP; among the mutant enzymes prepared): the least bias
- more likely to incorporate 3′-dATP in comparison with the wild type enzyme (3′-dATP; from Table 1): 5.58 times
- Relative activity of RNA polymerase for 3′-dATP (3′-dATP; relative value of inhibition degree of [α-32P]UTP incorporation by 100 μM 3′-dATP, wild type normalized to 1.000, 37° C., 60 minutes): 5.580
